“Also recorded” adds a separate entry of the source. No end group written: not given here. *: point of attachment. Myristoyl = CCCCCCCCCCCCCC(=O)*
How the values were obtained:
[1] = target: T1, Tat-ND2 310-321 (Homo sapiens, UniProt P03891); test: ELISA plate coated with Tat-ND2 310-321, binding of biotinylated Src peptides; conditions: FIG. 5C
T1 construct: 10; Tat-ND2 310-321; […]
Experimental: (§1) Src40-49-Tat indicate a fusion peptide in which the human HIV-1 tat protein transduction domain [[…]] […] (SEQ ID NO:10). […] The peptides were plated at a concentration of ˜5 uM.

[2] = target: T2, ND2 310-321 (Homo sapiens, UniProt P03891); test: Dot blot of Src fragments probed with biotinylated ND2 310-321; type: binding; conditions: FIG. 5A
T2 construct: 7; NVKMKWQFEHTK
Experimental: as §1

[3] = test system: PACAP-enhanced NMDA-evoked currents in CA1 neurons; test: Patch clamp of PACAP-enhanced NMDA-evoked currents in isolated CA1 neurons; type: cell-based, rat; conditions: PACAP 1 nM in patch pipette, peptide 6 mM, 25 to 30 minutes after PACAP
Excerpt: Pituitary Adenylate Cyclase-activating Polypeptide (PACAP) selectively increases NMDA receptor mediated responses in rat neurons, and it is thought that this peptide is involved in the regulation of synaptic plasticity as well as both long term potentiation and depression. To examine the effect of ND2 310-321 and Src 40-49 on PACAP-enhanced NMDA-evoked currents, isolated CA1 neurons were subjected to a series of patch clamp experiments in the presence or absence of these peptides. […] ND2 310-321 can prevent PACAP-induced potentiation. Similar experiments were also performed using the Src-selective inhibitory peptide, Src(40-58) (14 mM), or the truncated peptide, Src(40-49) (6 mM). The responses prior to application of PACAP were normalized the responses at 25 to 30 minutes following application of PACAP. The bar graph indicates three groups of recordings from neurons and indicated the relative change in peak NMDAR currents under the three conditions. ND2 310-321, but not Src40-49, inhibits PACAP-enhanced NMDA-evoked currents. Thus, ND2 310-321 can be used to block PACAP enhanced NMDA-evoked signaling and can therefore be used in many neurological diseases and disorders associated with impaired with long term potentiation (e.g., aging, Alzheimer's, neurodegenerative diseases and neuronal disorders affect memory).

[4] = target: T3, ND2, Src, NMDAR subunits, and PSD95 in hippocampal neurons (Rattus norvegicus, UniProt P11662+Q9WUD9); test: Immunocytochemistry colocalization in 14DIV hippocampal neurons; type: cell-based; conditions: 1 uM peptide for 1 h, day 14 neurons
T3 construct: endogenous in cells; host or cells: primary hippocampal neurons from E17/E18 Wistar rats, 14 DIV
Experimental: A series of experiments was performed to examine the localization of ND2, Src, NMDAR subunits, and PSD95 in hippocampal neurons by immunocytochemistry in the presence of Tat, Tat-ND2 310-321, or Src 40-49-Tat. Briefly, hippocampal neurons were isolated from embryonic day #17/E18 Wistar rats, and cultured in neurobasal media containing coverslips with B27 and glutamax. Cells were then treated for 1 hr with luM peptide before fixing by standard methods. Proteins were visualized using specific antibodies and secondary antibodies coupled to fluorescent molecules. Colocalization of fluorescence was calculated by merging the images in Photoshop and calculating the % colocalized between pairs as the total colocalized fluorescence clusters divided by the total number of clusters (e.g., % colocalized ND2 with Src=(total colocalized)/(total ND2 clusters); % colocalized Src with ND2=(total colocalized)/(total Src clusters)).
Hippocampal neurons cultured on coverslips were treated with 1 uM of Src 40-49-Tat, Tat-ND2 310-321 or Tat for 1 h at the day 14. Then neurons were incubated in 4% paraformaldehyde and 4% sucrose in phosphate-buffered saline (PBS) for 10 minutes followed by 5 minutes […] at room temperature (RT). Cells were permeabilized with 0.25% Triton X-100 in PBS for 5 minutes and by treatment with 5% donkey serum in PBS for 30 minutes at RT. The cultures were incubated with a mixture of the primary antibodies, raised in various species, in 0.25% Triton X-100 PBS for 2 hours at RT, washed, and incubated for 1 hour at RT with a mixture of species-specific secondary antibodies all raised in donkey and conjugated to either Texas Red, or FITC fluorophores (1:200 dilution in 0.25% Triton X-100 PBS). The coverslips were washed with PBS and mounted using ProLong Gold antifade reagent (Invitrogen). Images were collected using a 60× pan-fluor objective on a Nikon Eclipse TE 200 microscope. The images were analyzed with PhotoShop 7 (Adobe, San Jose, Calif.). Brightness and contrast were adjusted, sharpened using the unsharpen mask tool, and the images were merged for color colocalization.
For quantification of the colocalization, the maximum intensities of the fluorophore channels were normalized and the background fluorescence of each channel seen in the dendrites was subtracted, the color images were merged. Two clusters in two different channels were considered colocalizing when at least 66% of the surface of one clusters in one of the two channels overlapped with a clusters in the other channel. For each combination of antibodies, three independent immunofluorescence experiments were done. Each measurement was taken from a 50-m-long dendritic segment (with an average width of 2 m). Colocalization was expressed as the percent of the total clusters analyzed.

[5] = target: T4, binding of biotinylated Src40-49 to ND2 310-321 (Homo sapiens, UniProt P03891+P12931); test: Competition ELISA, binding of biotinylated Src40-49 to coated ND2 310-321; conditions: FIG. 5D, FIG. 7
T4 construct: 7; NVKMKWQFEHTK; KPASADGHRG
Experimental: Competition ELISAs were also performed. […] In a similar manner, ND2 constructs bearing amino acid sequences from the 300-321 region are able to act as inhibitors of the interaction between ND2 and Src.

[6] = test system: rats subjected to 3PVO; test: Three pial vessel occlusion (3PVO) model of stroke, infarct volume; type: in vivo, rat
Experimental: The efficacy of ND2 inhibitors in the treatment of stroke was examined using the three pial vessel occlusion (3PVO) model of stroke. This is a permanent model of stroke that creates small but consistent infarcts at 24 hours.
Male Sprague Dawley rats (n=10 in each group) were surgically subjected to permanent occlusion of the pial vessels. One hour post-surgery, animals were given an intravenous injection of Saline, Tat-NR2B9c (Aarts et al, Science, 2002), Src 40-49-Tat or Tat-ND2 310-321 and allowed to further recover in their cages. 24 hours after surgery, brains were harvested, sliced and incubated with TTC to visualize the areas of infarction. The infarct volume of each animal was determined, as well as the average volumes for each group of ten.
Both peptides were myristoylated via an amide bond to the alpha-amino group of the N-terminal amino acid of the peptide.
Male Sprague Dawley rats (n=10 in each group) weighing between 230 and 290 g were used for this study. Experiments were performed on fasted rats (Free overnight access to water but not food). For permanent three pial vessel occlusion (3PVO) was performed as described previously (Forder J et al., 2005, supra). In brief, rats were anesthetized with a 0.5 ml/kg intramuscular injection of ketamine (100 mg/kg), acepromazine (2 mg/kg), and xylazine (5 mg/kg), supplemented with one-third of the initial dose as required. An anal temperature probe was inserted, and the animal was placed on a heating pad maintained at 37° C. The skull was exposed via a midline incision and scraped free of tissue. Using a dissecting microscope and a pneumatic dental drill, a 6- to 8-mm cranial window was made over the right somatosensory cortex (2 mm caudal and 5 mm lateral to bregma) by drilling a rectangle through the skull and lifting off the piece of skull while keeping the dura intact. The 3 pial arteriolar middle cerebral artery branches around the barrel cortex were selected and electrically cauterized through the dura. After the cauterizations, the scalp was sutured. […]

[7] = target: T5, Src 40-58 (Homo sapiens, UniProt P12931, A55V); test: Dot blot of GST-ND2 fragments probed with biotinylated Src 40-58; type: binding; conditions: GST-fusion proteins spotted 1-10 ug, biotinylated peptide ~15 ug/ml, 2 hours
T5 construct: KPASADGHRG P SAAFVPAA
Experimental: GST-fusion proteins were designed using different fragments of ND2 and expressed and purified using standard protocols. These purified proteins were spotted onto membranes for probing with biotinylated Src 40-58 peptide or a scrambled control peptide (sSrc 40-58). In general, 1-10 ug of peptide or recombinant protein was spotted onto nitrocellulose and dried overnight. Membranes were blocked with 5% milk for 1 h at room temperature, then incubated with biotinylated peptides (˜15 ug/ml) for 2 hours the washed using standard wash buffers. Bound probe was detected using a short incubation with streptavidin conjugated to horseradish peroxidase (SA-HRP) and standard detection reagents, predominantly chemiluminescence kits. […] Further GST-constructs were made to narrow the core Src binding regions (FIG. 2A). Dot blots were made with these constructs and tested for their ability to capture biotinylated Src 40-58 (FIG. 2B).
(§2) Further GST constructs were made to identify the amino acid sequences in ND2.1.4 responsible for binding to Src 40-58 (FIG. 3A). Although these sequences are minimally responsible for binding, sequences corresponding to ND2 these sequences as well as those flanking them could be used for inhibition of the Src-ND2 interaction. […] As before, interactions with all of the fragments were confirmed in an ELISA assay (FIG. 3C), and the top binders were ND2 310-321, ND2 289-309, ND2 299-318, ND2 307-321 and full length ND2. […] All fragments tested were able to bind Src40-58 more strongly than the negative control peptide sSrc 40-58.

[8] = target: T5, Src 40-58; test: ELISA of coated ND2 constructs with biotin-Src 40-58; type: binding; conditions: biotin-Src 40-58 at 6 uM
Experimental: GST-ND2, GST-ND2.1 or GST-ND2.1.4 were coated onto ELISA wells by incubating at the indicated concentration under standard conditions. Wells were blocked using 5% milk, and either biotin-Src 40-58 (FIG. 2C top) or biotin-sSrc 40-58 (bottom) were incubated at 6 uM.
as §2

[9] = Arterial blood pressure after rapid high-dose intravenous bolus; conditions: ~25 mg/kg bolus injection into the tail vein
Experimental: Rats with surgically implanted devices to measure arterial pressure were dosed with ˜25 mg/kg of the respective peptides as a bolus injection into the tail vein at 10 minutes post monitoring.

[10] = target: T6, Src 40-49 (Homo sapiens, UniProt P12931); test: Dot blot of ND2 constructs binding Src 40-49; conditions: FIG. 4A
T6 construct: KPASADGHRG
Excerpt: (§3) We next examined the ability of the ND2 constructs to bind to a shorter version of the Src binding domain—Src 40-49 (FIGS. 4A, B). ND2 310-321, ND2 307-318, and ND2 310-318 were the top binders of Src 40-49 by dot blot analysis (FIG. 4A).

[11] = target: T6, Src 40-49; test: ELISA of ND2 constructs binding Src 40-49; conditions: FIG. 4B
Excerpt: as §3

Molecule: bio-Src 40-49: biotinylated Src 40-49 peptide (KPASADGHRG; also: biotinylated, position not given here)
- binding to coated Tat-ND2 310-321 (ELISA) [1]: able to bind in a concentration dependent manner

Molecule: Bio-sSrc 40-49: biotinylated scrambled control peptide (GAAKRPSDGH; also: biotinylated, position not given here)
- binding to coated Tat-ND2 310-321 (ELISA) [1]: no binding was seen

Molecule: KPASADGHRG [Src40-49]
- binding of biotinylated ND2 310-321 (dot blot) [2]: bound ND2 310-321
- effect on PACAP-enhanced NMDA-evoked currents ([3]; listed as Src 40-49): does not

Molecule: YGRKKRRQRRR [Tat]
- colocalization of Src and ND2 [4]: does not

Molecule: YGRKKRRQRRRKPASADGHRG [Tat-Src40-49]
- binding of biotinylated ND2 310-321 (dot blot) [2]: bound ND2 310-321
- inhibition of binding of biotinylated Src40-49 to ND2 310-321 (competition ELISA) [5]: inhibited

Molecule: myristoyl- MSNNVKMKWQFEHTK (Myristoyl-MSNNVKMKWQFEHTK) [Myr2-ND2]
- protection against damage from the stroke, second experiment (FIG. 22) ([6]; given intravenously 1 hour after onset of stroke, relative to Tat-ND2): equivalent or superior protection

Molecule: NLYFYLRLIYSTSITLLPMSNNVKMKWQFEHTK (not fully specified) [ND2.1.4, GST-fusion protein of ND2 fragment AA 289-321]
- binding of biotinylated Src 40-58 (dot blot) [7]: most effective sub fragment for binding Src 40-58
- binding of biotinylated Src 40-58 (dot blot) ([7]; listed as ND 2.1.4): better than ND2.1.3
- binding of biotin-Src 40-58 (ELISA) [8]: concentration-dependent manner

Molecule: MSNNVKMKWQFEHTK [ND2 307-321]
- binding of biotinylated Src 40-58 (dot blot) [7]: binding was seen
- binding of biotin-Src 40-58 (ELISA) [8]: top binders

Molecule: YGRKKRRQRRRNVKMKWQFEHTK [Tat-ND2 310-321]
- mean arterial blood pressure after bolus [9]: about one half of normal

Molecule: NLYFYLRLIYSTSITLLPMSN [ND2 289-309]
- binding of biotinylated Src 40-58 (dot blot) [7]: binding was seen
- binding of biotin-Src 40-58 (ELISA) [8]: top binders

Molecule: ITLLPMSNNVKMKWQFEHTK [ND2 302-321]
- binding of biotinylated Src 40-58 (dot blot) [7]: binding was seen

Molecule: YGRKKRRQRRRKLSSIESDV [Tat-NR2B9c]
- decline in infarct volume ([6]; 3 nmol/g intravenous one hour post-surgery, 24 hours after surgery, n=10): approximately 40%
- mean arterial blood pressure after bolus [9]: about one half of normal

Molecule: MSNNVKMKWQFE [ND2 307-318]
- binding of Src 40-49 (dot blot) [10]: top binders; also recorded: strong binding

Molecule: STSITLLPMSNNVKMKWQFE [ND2 299-318]
- binding of biotinylated Src 40-58 (dot blot) [7]: binding was seen
- binding of biotin-Src 40-58 (ELISA) [8]: top binders

Molecule: NVKMKWQFE [ND2 310-318]
- binding of Src 40-49 (dot blot) [10]: top binders; also recorded: strong binding

Molecule: NVKMKWQFEHTK [ND2 310-321]
- binding of biotinylated Src 40-58 (dot blot) [7]: binding with high relative affinity
- binding of biotin-Src 40-58 (ELISA) [8]: top binders
- binding of Src 40-49 (dot blot) [10]: top binders; also recorded: strong binding
- binding of Src 40-49 (ELISA) [11]: strongest binding
- effect on PACAP-enhanced NMDA-evoked currents [3]: inhibits

B1: ND2.1: GST-fusion protein of ND2 sub fragment AA239-321 (protein)
chain: WLTPLIPSTLLSLGGLPPLTGFLPKWAIIEEFTKNNSLIIPTIMATITLLNLYFYLRLIYSTSITLLPMSNNVKMKWQFEHTK
modifications: left off: a dimerising Fc or GST
- binding of biotinylated Src 40-58 (dot blot) [7]: can also bind Src 40-58; also recorded: better than ND2.1.3
- binding of biotin-Src 40-58 (ELISA) [8]: concentration-dependent manner

Source: patent US9073976B2, “ND2 peptides and methods of treating neurological disease” (NoNO Inc., priority 2010, dated 2015)
